{
  "source": "paper PMC12204516",
  "about": "“Structural basis for higher-order DNA binding by a bacterial transcriptional regulator” (PLOS Genetics, 2025)",
  "binders": {"B1": {"name": "RES^Pp toxin with N-terminal His6-tag (RES^Pp_(NHis6)), of the Xre-RES^Pp_(NHis6) complex (natural protein, Pseudomonas putida KT2440, UniProt Q88K57 1-145, looked up)", "chain": "MILWRISAYADLSGTGGLRVSGRWHQAGRPVVYAATSPPGAMLEVLVHLEIDPEDFPTTMRLLRIELPDTVSQAQLPALQPGWSAQPELTRTLGNRFLDDCSALLLPVPSAIMPSTTNYLFNPRHPQAQSAKIQVEDFTPDSRLF", "notes": "RES-domain NADase toxin encoded by res^Pp of the xre-res locus, Pseudomonas putida KT2440; residues 1-145 built in PDB 9R35; the 13 N-terminal residues from the tag are not seen in the model; also called RES_(His6); RES^Pp_(His6); not shown: His6, N-terminal, kept"}},
  "key": {"[1]": {"molecular_target": "B1", "assay": "mass photometry", "details": "both partners purified"}, "[2]": {"molecular_target": "B1", "assay": "SEC-MALS; Superose 6 Increase 10/300, 20-40 ug per sample, 20 mM HEPES pH 7.5, 150 mM KCl, 5 mM MgCl2, 3 mM BME", "details": "both partners purified"}, "mass photometry": {"molecular_target": "the molecule itself", "assay": "mass photometry"}, "[3]": {"molecular_target": "T1, Xre^Pp antitoxin with a N-terminal His6-tag (Xre_(NHis6)), of the Xre_(NHis6)-RES^Pp complex (Pseudomonas putida KT2440, UniProt Q88K58 11-159)", "T1 construct": "also called Xre_(His6); source: E. coli BL21(DE3), pETDuet::xre_(NHis6)-res^Pp, purified with RES (HisTrap FF, Source 15Q, Superdex 200 Increase); not shown: His6, N-terminal, kept", "T1 sequence": "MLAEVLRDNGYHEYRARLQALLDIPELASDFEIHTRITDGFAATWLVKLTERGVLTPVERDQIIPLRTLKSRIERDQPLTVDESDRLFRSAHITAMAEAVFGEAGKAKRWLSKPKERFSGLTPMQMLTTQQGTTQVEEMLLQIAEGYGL", "assay": "SEC", "details": "both partners purified"}, "[4]": {"molecular_target": "the molecule itself", "assay": "SEC-MALS; Superose 6 Increase 10/300, 20-40 ug per sample, 20 mM HEPES pH 7.5, 150 mM KCl, 5 mM MgCl2, 3 mM BME"}},
  "note": "Several values for one entry are separate records, joined by “and”; a condition that tells them apart may be missing. Equal values may be shown once.",
  "data": [
    {"binder": "Xre^Pp antitoxin, untagged, co-expressed and co-purified with RES^Pp_(NHis6) (Xre-RES^Pp_(NHis6) complex) (natural protein, Pseudomonas putida KT2440, UniProt Q88K58 11-159, looked up, Xre antitoxin (N-terminal HTH domain, C-terminal DUF2384) encoded by xre^Pp of the xre-res locus, Pseudomonas putida KT2440; residues 1-149 built in PDB 9R35 (complete in chain B and others); also called Xre antitoxin) MLAEVLRDNGYHEYRARLQALLDIPELASDFEIHTRITDGFAATWLVKLTERGVLTPVERDQIIPLRTLKSRIERDQPLTVDESDRLFRSAHITAMAEAVFGEAGKAKRWLSKPKERFSGLTPMQMLTTQQGTTQVEEMLLQIAEGYGL", "values": [
      {"measurement": "stoichiometry N", "setting": "[1]", "value": "~2 Xre per RES and ~1.5 Xre per RES and ~1 Xre per RES"},
      {"measurement": "stoichiometry N", "setting": "[2]", "value": 2, "unit": "Xre per RES"}
    ]},
    {"binder": "RES^Pp toxin, untagged, co-expressed and co-purified with Xre_(NHis6) (Xre_(NHis6)-RES^Pp complex) (natural protein, Pseudomonas putida KT2440, also called RES toxin) MILWRISAYADLSGTGGLRVSGRWHQAGRPVVYAATSPPGAMLEVLVHLEIDPEDFPTTMRLLRIELPDTVSQAQLPALQPGWSAQPELTRTLGNRFLDDCSALLLPVPSAIMPSTTNYLFNPRHPQAQSAKIQVEDFTPDSRLF", "values": [
      {"measurement": "binding result", "setting": "mass photometry", "value": "binds"},
      {"measurement": "stoichiometry N", "setting": "[3]", "value": 1, "unit": "RES per Xre"}
    ]},
    {"binder": "B1", "values": [
      {"measurement": "binding result", "setting": "[4]", "value": "binds"}
    ]}
  ]
}
